Like-named read-outs stand apart in the source and are kept apart here. One block for each molecule: values may come before it.
Columns and labels:
[1] = biological target: PKR (Homo sapiens) (UniProt P19525); conditions: cited from earlier work
[2] = biological target: PKR (Homo sapiens) (UniProt P19525); assay: sedimentation equilibrium; conditions: cited from earlier work
[3] = biological target: PKR kinase kinase domain (Homo sapiens) (UniProt P19525); conditions: cited from earlier work
[4] = biological target: T1, PKR (Homo sapiens, UniProt P19525); assay: sedimentation equilibrium
T1 chain: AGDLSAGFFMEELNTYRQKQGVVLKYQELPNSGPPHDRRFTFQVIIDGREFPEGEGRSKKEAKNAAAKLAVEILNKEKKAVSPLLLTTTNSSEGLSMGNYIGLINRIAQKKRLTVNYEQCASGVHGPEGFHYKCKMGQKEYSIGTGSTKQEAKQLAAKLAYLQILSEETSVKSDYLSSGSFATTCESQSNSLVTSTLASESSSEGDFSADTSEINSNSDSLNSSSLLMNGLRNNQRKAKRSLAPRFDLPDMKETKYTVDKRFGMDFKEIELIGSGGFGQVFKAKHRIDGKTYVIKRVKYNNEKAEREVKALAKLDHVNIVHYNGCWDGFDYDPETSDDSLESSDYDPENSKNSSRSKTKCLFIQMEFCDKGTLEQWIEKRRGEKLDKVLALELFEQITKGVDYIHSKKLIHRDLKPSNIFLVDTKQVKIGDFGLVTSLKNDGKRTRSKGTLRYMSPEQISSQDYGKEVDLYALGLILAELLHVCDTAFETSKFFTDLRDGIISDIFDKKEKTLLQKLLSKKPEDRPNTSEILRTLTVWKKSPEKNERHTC

Molecule: PKR (from UniProt P19525)
- Kd [1]: 500 µM
- Kd [2]: 450 µM

Molecule: PKR second dsRBD dsRBD2 (from UniProt P19525)
- Kd [3]: 250 µM

Continued, values first:

- Kd [4]: 1260 µM
B1: PKR (protein)
chain: AGDLSAGFFMEELNTYRQKQGVVLKYQELPNSGPPHDRRFTFQVIIDGREFPEGEGRSKKEAKNAAAKLAVEILNKEKKAVSPLLLTTTNSSEGLSMGNYIGLINRIAQKKRLTVNYEQCASGVHGPEGFHYKCKMGQKEYSIGTGSTKQEAKQLAAKLAYLQILSEETSVKSDYLSSGSFATTCESQSNSLVTSTLASESSSEGDFSADTSEINSNSDSLNSSSLLMNGLRNNQRKAKRSLAPRFDLPDMKETKYTVDKRFGMDFKEIELIGSGGFGQVFKAKHRIDGKTYVIKRVKYNNEKAEREVKALAKLDHVNIVHYNGCWDGFDYDPETSDDSLESSDYDPENSKNSSRSKTKCLFIQMEFCDKGTLEQWIEKRRGEKLDKVLALELFEQITKGVDYIHSKKLIHRDLKPSNIFLVDTKQVKIGDFGLVTSLKNDGKRTRSKGTLRYMSPEQISSQDYGKEVDLYALGLILAELLHVCDTAFETSKFFTDLRDGIISDIFDKKEKTLLQKLLSKKPEDRPNTSEILRTLTVWKKSPEKNERHTC
modifications: K371pAzF labeled with Alexa Fluor 488-DIBO

- Kd [4]: 94 µM
B2: PKR (protein)
chain: AGDLSAGFFMEELNTYRQKQGVVLKYQELPNSGPPHDRRFTFQVIIDGREFPEGEGRSKKEAKNAAAKLAVEILNKEKKAVSPLLLTTTNSSEGLSMGNYIGLINRIAQKKRLTVNYEQCASGVHGPEGFHYKCKMGQKEYSIGTGSTKQEAKQLAAKLAYLQILSEETSVKSDYLSSGSFATTCESQSNSLVTSTLASESSSEGDFSADTSEINSNSDSLNSSSLLMNGLRNNQRKAKRSLAPRFDLPDMKETKYTVDKRFGMDFKEIELIGSGGFGQVFKAKHRIDGKTYVIKRVKYNNEKAEREVKALAKLDHVNIVHYNGCWDGFDYDPETSDDSLESSDYDPENSKNSSRSKTKCLFIQMEFCDKGTLEQWIEKRRGEKLDKVLALELFEQITKGVDYIHSKKLIHRDLKPSNIFLVDTKQVKIGDFGLVTSLKNDGKRTRSKGTLRYMSPEQISSQDYGKEVDLYALGLILAELLHVCDTAFETSKFFTDLRDGIISDIFDKKEKTLLQKLLSKKPEDRPNTSEILRTLTVWKKSPEKNERHTC
modifications: K261pAzF labeled with Alexa Fluor 488-DIBO

From publication PMC4641775 (2016)
